From article PMC4301630, “Dynamic Growth and Shrinkage Govern the pH Dependence of RecA Filament Stability” (PLoS ONE, 2015) come the findings set out here.

The data set concerns the molecule itself. Nature of the data set: single-molecule FRET (Cy3 and Cy5 on the DNA, TIRF microscopy); partial duplex DNA with a 60 nt 3' single-stranded overhang immobilised on a PEG-coated quartz slide; dyes 10 nt apart at the 5' side of the overhang report monomers joining and leaving the 5' end of the RecA filament; 1 uM RecA (0.5 uM RecAΔC17), 1 mM ATP, 10 mM Mg(OAc)2, 100 mM NaOAc, 10 mM Tris-OAc, Mes or Mops, pH 6.0 to 8.0, room temperature; ….

B1: RecA protein (wild type) (natural protein, UniProt P0A7G6 1-353, looked up)
chain: MAIDENKQKALAAALGQIEKQFGKGSIMRLGEDRSMDVETISTGSLSLDIALGAGGLPMGRIVEIYGPESSGKTTLTLQVIAAAQREGKTCAFIDAEHALDPIYARKLGVDIDNLLCSQPDTGEQALEICDALARSGAVDVIVVDSVAALTPKAEIEGEIGDSHMGLAARMMSQAMRKLAGNLKQSNTLLIFINQIRMKIGVMFGNPETTTGGNALKFYASVRLDIRRIGAVKEGENVVGSETRVKVVKNKIAAPFKQAEFQILYGEGINFYGELVDLGVKEKLIEKAGAWYSYKGEKIGQGKANATAWLKDNPETAKEIEKKVRELLLSNPNSTPDFSVDDSEGVAETNEDF
notes: RecA protein, wild type, bought from New England Biolabs; Forms helical filaments of many monomers on single-stranded DNA with ATP or ATPγS; the number of copies in the filament is not fixed; also called wild type RecA; source: bought: New England Biolabs, used without further purification
Consider B1, for which the binding result is “binds”.
